From US20150252099A1 (TRELLIS BIOSCIENCE, published 2015) come the findings set out here.

In assay [1] the target is T1, CMV gB protein (strain AD169), purified (human cytomegalovirus (CMV), strain …, UniProt P06473 32-906, limits assumed).
T1 construct: also called recombinant gB protein; purified gB protein
The assay is described as follows: ForteBio biosensor, antibody coupled to the probe, gB in solution. For orientation: In BLI a coated tip is dipped into the sample, and binding shifts an interference pattern.
Protocol: (§1) In this method, the carboxylic acid groups on Amine Reactive Biosensors were activated with EDC/NHS. […] The gB protein was incubated with the Ab-coated probe and rates of association to and dissociation from the Ab-coated probe were determined by the FortéBio® instrument.

For assay [2], the target named is T1, CMV gB protein (strain AD169), purified. In words: told with the gB binding kinetics (ForteBio biosensor); reference mAb 4A2.
Protocol: as §1
Assay [3] shares this target. The assay is described as follows: cell-based or functional assay.
The target is the same in assay [4]. The assay is described as follows: ForteBio biosensor, antibody coupled to the probe, gB in solution. The source holds these as a separate data set.
Protocol: as §1
The target of assay [5] is T2, AD-2 peptide NETIYNTTLKYGDV (human cytomegalovirus (CMV)).
T2 construct: also called peptide AD-2; conserved peptide designated AD-2
T2 peptide: NETIYNTTLKYGDV
In words: ELISA binding assay on the AD-2 peptide. A general note: ELISA stands for enzyme-linked immunosorbent assay.

Read-outs that look alike come from different tables or passages of the source.

T1 sequence (P06473 32-906 limits assumed): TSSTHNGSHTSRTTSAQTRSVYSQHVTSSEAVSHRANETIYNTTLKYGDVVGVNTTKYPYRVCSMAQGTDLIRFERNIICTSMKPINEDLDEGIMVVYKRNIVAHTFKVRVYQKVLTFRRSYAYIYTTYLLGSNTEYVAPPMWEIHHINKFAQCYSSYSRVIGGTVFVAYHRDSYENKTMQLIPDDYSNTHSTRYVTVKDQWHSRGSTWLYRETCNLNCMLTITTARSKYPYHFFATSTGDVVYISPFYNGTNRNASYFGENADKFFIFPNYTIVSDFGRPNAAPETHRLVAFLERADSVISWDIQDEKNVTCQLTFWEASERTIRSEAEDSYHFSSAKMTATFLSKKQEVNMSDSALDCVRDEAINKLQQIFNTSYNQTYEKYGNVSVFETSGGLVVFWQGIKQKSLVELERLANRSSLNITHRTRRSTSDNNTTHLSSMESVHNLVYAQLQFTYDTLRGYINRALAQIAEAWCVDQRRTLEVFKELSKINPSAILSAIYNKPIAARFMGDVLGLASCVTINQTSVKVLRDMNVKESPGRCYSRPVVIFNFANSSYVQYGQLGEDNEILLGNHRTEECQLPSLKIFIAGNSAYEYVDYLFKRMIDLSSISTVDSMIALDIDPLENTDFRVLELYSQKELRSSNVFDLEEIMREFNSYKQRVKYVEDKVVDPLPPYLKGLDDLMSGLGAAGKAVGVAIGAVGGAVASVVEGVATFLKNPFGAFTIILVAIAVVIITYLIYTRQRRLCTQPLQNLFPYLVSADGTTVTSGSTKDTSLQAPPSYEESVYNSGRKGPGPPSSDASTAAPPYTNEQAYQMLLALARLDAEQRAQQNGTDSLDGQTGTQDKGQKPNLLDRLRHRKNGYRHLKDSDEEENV

B1: MAB313 (antibody, V domains shown)
VH: QVQLVQSGGGVIQPGRSLTLSCAASGFTFSAYSLHWVRQAPGKGLQWVAVISFDGNFKHFADSLRGRFTISRDNSKNRFYLQMNGLRGEDTAVYYCARDGRAVDGFSGILDFWGQGTLVSVSS
VL: EIVMTQSPATLSLSPGERATLSCRASQSVGRYLTWFQQKPGQAPRLLIYDASERATGIPARFSGSGSGTDFTLTISSLEPEDFAVYYCQQRANWPPLTFGGGTKVEIK
A word on the Kd: it is the equilibrium constant for the complex coming apart. For orientation: koff means the rate constant with which the complex falls apart. Low readings indicate slow dissociation, high ones fast dissociation. By kon is commonly meant a measure of how fast the partners come together. Low readings indicate slow association, high ones fast association. In assay [1], B1 displayed a Kd of 0.7 nM, a dissociation rate constant (koff) of 1.2e-05 s⁻¹ and an on-rate (kon) of 17000 M⁻¹ s⁻¹. For the same molecule, the “fold higher potency than mAb 4A2” value in assay [2] is approximately 10 fold.

B2: MAB345 (antibody, V domains shown)
VH: QVQLVESGGGVVQPGRSLRLSCAASGFTFSDYNMHWVRQAPGKGLEWVAVISIDGTYKYSADSVAGRFSLSRDNSKNTLYLQMNSLRPDDTAIYYCARDGRSVGGFSGILDPWGQGTLVTVSS
VL: EIVMTQSPATLSLSPGDRATLSCRASQSVGSYLAWYQQKPGQAPRLLMYDSSVRATGIPARFSGSGSGTDFTLTISSLEPEDFAVYYCQQRNNWPPLTFGGGTKVEIK
notes: also called ATCC PTA-121705
In assay [1], B2 came in with an equilibrium dissociation constant (Kd) of 2.3 nM, a koff of 3.3e-05 s⁻¹ and a kon of 14000 M⁻¹ s⁻¹.

B3: MAB338 (antibody, V domains shown)
VH: QVQLVESGGGVVQPGRSLRLSCSGSGFTFSDYNLHWVRQAPGKGLEWVAVISIDGTNKHHADSVKGRFTISRDNSKNTVNLEMSRLKAEDTAVYYCVRDGRSIGGYSGIFDPWGQGTLVTVSS
VL: EIVLTQSPATLSLSPGERATLSCRASQSVDRYLAWYQQKPGQAPRLLIYDASQRATGIPARFSGSGSGTDFTLAISSLEPEDVAVYYCQQRSNWPPLTFGGGTKIEIK
With B3, the “fold higher potency than mAb 4A2” value in assay [2] is approximately 10 fold.

B4: mAb 4A2 (antibody, V domains shown)
VH: QVLLEESGGGVVQPGRSLRLSCAGSGFTFNRHGIHWVRQAPGKGLEWVTVISSDGANQQYAESVKGRFIISRDNSKNTVYLEMNSLRNDDTGVYFCARDGRCEGERCYSGVTDFWGQGTLV
VL: EIVLTQSPATLSLSPGERATLSCRASQNIGGYLAWFQQKAGQAPRLLIYDASIRATGIPARFSGSGSGTDFTLTISSLEPEDFAVYYCQQRNSWPPLTFG
notes: Human mAb
With B4, the “IC50 (µg/mL), neutralizing potency” value in assay [3] is 0.02 µg/mL. In assay [4], this molecule gave a dissociation constant Kd of 0.168 nM.

B5: mAb 19B10 (antibody, V domains shown)
VH: QVQLQQSGPGLVKPSQTLSLTCTVSGGSISSGDFCWNWIRQPPGKGLEWIGYICYTGDTYYNPPLNSRVTISVDRSRNQISLRLSSVTAADTAVYYCAREDRRQLHSRPYFYYGLDVWGRGTKVTVSS
VL: EIVMTQSPLSLPVTPGETASISCRSSQSLLHSNGHNYLDWYLQKPGQSPHLLIYLGSIRASGVPDRFSGSGTGTDFTLKISRVEAEDVGVYYCMQALQTPNTFGQGTKLEIRR
notes: Human mAb
As to B5, the “IC50 (µg/mL), neutralizing potency” value in assay [3] was determined as 0.04 µg/mL. In assay [5], the binding result is recorded as “no binding”. Further, binding in assay [4] was put at a Kd of 0.697 nM.

B6: MAB310 (antibody, V domains shown)
VH: QVQLVQSGGGVVQPGTSLRLSCAASGFMFNTYNMHWVRQAPGKGLEWVAVISNDGTYKYSADSLKGRFSISRDNSKNTLYLHMNSLRPDDTAVYYCARDGRSVGGFSGILDPWGQGTLVTVSS
VL: EIVLTQSPATLSLSPGDRATLSCRASQTVGRYLAWYQQKPGQAPRLLIYDASDRATGISARFSGSGSGTDFTLTISSLEPEDFAVYYCQQRSNWPPLTFGGGTKVEIKR
In assay [1], B6 returned a Kd of 0.8 nM, a koff of 1.2e-05 s⁻¹ and a kon of 16000 M⁻¹ s⁻¹. For the same molecule, in assay [2], the “fold higher potency than mAb 4A2” value was approximately 10 fold.
